Results reported in publication PMC11446271.

Assays:
[1] = system: Pab1p (poly(A)-binding protein) (Saccharomyces cerevisiae); experiment: single-molecule eIF1 dwell time, hyperbolic fit; conditions: 5' cap, 3' poly(A) tail
[2] = system: Pab1p (poly(A)-binding protein) (Saccharomyces cerevisiae); experiment: EMSA

## PAB1 mRNA, capped and poly(A)-tailed
[1]
  Kd: 13 nM

## PAB1 mRNA, non-polyadenylated
[2]
  Kd: 25 nM
